Test results published in PMC12290059.

Biological target: recombinant SARS-CoV-2^RBD (biotinylated, AVI-tagged) (SARS-CoV-2) (UniProt P0DTC2)
Experiment: BLI

## N. vison ACE2 used in biolayer interferometry (domain or fragment)
  Kd: 1.5 nM
